Experimental data taken from the supplement of paper PMC10567573.

B1: IQUB (parent)
chain: EADYEDDSKIAFLMQLQDIQYLTE

Variants of: B1
Assay: protein stability index of a GFP-peptide fusion (GPS, HEK-293T) (PSI 1-6); higher = more stable
Conditions: c terminus: a fixed tail appended
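Note: lentivirally expressed fusions sorted by FACS into six bins by GFP to DsRed ratio, PSI derived from sequencing read proportions per bin multiplied by bin number.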

Row | Variant | protein stability index
1 | EADYEDKSKIAFLMQLQDIQYLTE [D7K] | 2.38
2 | EADYEDWSKIAFLMQLQDIQYLTE [D7W] | 2.33
3 | EADYEDPSKIAFLMQLQDIQYLTE [D7P] | 2.67
4 | EADYEDGSKIAFLMQLQDIQYLTE [D7G] | 2.78
5 | EADYEDASKIAFLMQLQDIQYLTE [D7A] | 2.48
6 | EADYEDSSKIAFLMQLQDIQYLTE [D7S] | 2.47
7 | EADSEDDSKIAFLMQLQDIQYLTE [Y4S] | 3.65
8 | EADDEDDSKIAFLMQLQDIQYLTE [Y4D] | 4.24
9 | EADAEDDSKIAFLMQLQDIQYLTE [Y4A] | 3.76
10 | EADWEDDSKIAFLMQLQDIQYLTE [Y4W] | 3.42
11 | EADYEDDSYIAFLMQLQDIQYLTE [K9Y] | 2.42
12 | EADYEDDSVIAFLMQLQDIQYLTE [K9V] | 2.3
13 | EADYEDDSEIAFLMQLQDIQYLTE [K9E] | 3.39
14 | EADYEDDSTIAFLMQLQDIQYLTE [K9T] | 2.64
15 | EADYEDDSNIAFLMQLQDIQYLTE [K9N] | 3.08
16 | EADYEDDSLIAFLMQLQDIQYLTE [K9L] | 2.58
17 | EADYEDDSFIAFLMQLQDIQYLTE [K9F] | 2.32
18 | EADYEDDSGIAFLMQLQDIQYLTE [K9G] | 2.81
19 | EADYEDDSKIAFLMQLQDMQYLTE [I19M] | 3.68
20 | EADYEDDSKIAFLMQLQDQQYLTE [I19Q] | 4.11
21 | EADYEDDSKIAFLMQLQDGQYLTE [I19G] | 4.31
22 | EADYEDDSKIAFLMQLQDDQYLTE [I19D] | 4.94
23 | EADYEDDSKIAFLMQLQDFQYLTE [I19F] | 3.44
24 | EADYEDDSKIAFLMQLQDPQYLTE [I19P] | 4.18

Row | Variant | protein stability index
25 | EADYEDDSKIAFLMQLQDSQYLTE [I19S] | 4.35
26 | EADYEDDSKIAFLMQLQDLQYLTE [I19L] | 2.86
27 | EADYEQDSKIAFLMQLQDIQYLTE [D6Q] | 2.57
28 | EADYEEDSKIAFLMQLQDIQYLTE [D6E] | 2.88
29 | EADYERDSKIAFLMQLQDIQYLTE [D6R] | 2.09
30 | EADYELDSKIAFLMQLQDIQYLTE [D6L] | 1.53
31 | EADYEWDSKIAFLMQLQDIQYLTE [D6W] | 1.83
32 | EADYETDSKIAFLMQLQDIQYLTE [D6T] | 2.25
33 | EADYEVDSKIAFLMQLQDIQYLTE [D6V] | 2.17
34 | EADYEFDSKIAFLMQLQDIQYLTE [D6F] | 2.04
35 | EADYEDDSKIAFLMQLQDIQYLTI [E24I] | 1.67
36 | EADYEDDSKIAFLMQLQDIQYLTC [E24C] | 2.33
37 | EADYEDDSKIAFLMQLQDIQYLTT [E24T] | 2.54
38 | EADYEDDSKIAFLMQLQDIQYLTH [E24H] | 2.48
39 | EADYEDDSKIAFLMQLQDIQYLTS [E24S] | 2.71
40 | EADYEDDSKIAFLMQLQDIQYLTK [E24K] | 2.73
41 | EADYTDDSKIAFLMQLQDIQYLTE [E5T] | 3.5
42 | EADYWDDSKIAFLMQLQDIQYLTE [E5W] | 2.29
43 | EADYVDDSKIAFLMQLQDIQYLTE [E5V] | 2.38
44 | EADYRDDSKIAFLMQLQDIQYLTE [E5R] | 2.63
45 | EADYFDDSKIAFLMQLQDIQYLTE [E5F] | 2.38
46 | EADYQDDSKIAFLMQLQDIQYLTE [E5Q] | 2.62
47 | EADYHDDSKIAFLMQLQDIQYLTE [E5H] | 2.62
48 | EADYEDDSKIAFLMQLQDIQLLTE [Y21L] | 3.44

Row | Variant | protein stability index
49 | EADYEDDSKIAFLMQLQDIQGLTE [Y21G] | 4.07
50 | EADYEDDSKIAFLMQLQDIQILTE [Y21I] | 3.19
51 | EADYEDDSKIAFLMQLQDIQFLTE [Y21F] | 2.78
52 | EADYEDDSKIAFLMQLQDIQELTE [Y21E] | 4.21
53 | EADYEDDSKIAFLMQLQDIQVLTE [Y21V] | 3.51
54 | EADYEDDSKIAFLMQLQDIQQLTE [Y21Q] | 3.64
55 | EADYEDDSKIAFLMQLQDIQDLTE [Y21D] | 4.45
56 | EADYEDDSKIAFLMQLQDIIYLTE [Q20I] | 2.64
57 | EADYEDDSKIAFLMQLQDILYLTE [Q20L] | 1.69
58 | EADYEDDSKIAFLMQLQDIRYLTE [Q20R] | 3.67
59 | EADYEDDSKIAFLMQLQDIAYLTE [Q20A] | 2.5
60 | EADYEDDSKIAFLMQLQDIFYLTE [Q20F] | 1.54
61 | EADYEDDSKIAFLMQLQDIPYLTE [Q20P] | 3.45
62 | EADYEDDSKIAFLMQLQDIKYLTE [Q20K] | 3.46
63 | EADYEDDSKIAFLMQLQDIGYLTE [Q20G] | 2.97
64 | EADYEDDSKIAFLMQLQDIWYLTE [Q20W] | 2.35
65 | EADYEDDSKIAFLMQLQDICYLTE [Q20C] | 2.2
66 | EACYEDDSKIAFLMQLQDIQYLTE [D3C] | 1.69
67 | EAHYEDDSKIAFLMQLQDIQYLTE [D3H] | 2.17
68 | EAYYEDDSKIAFLMQLQDIQYLTE [D3Y] | 1.83
69 | EAIYEDDSKIAFLMQLQDIQYLTE [D3I] | 1.97
70 | EAQYEDDSKIAFLMQLQDIQYLTE [D3Q] | 2.23
71 | EALYEDDSKIAFLMQLQDIQYLTE [D3L] | 2.02
72 | EADYEDDSKIAFLMQFQDIQYLTE [L16F] | 3.42

Row | Variant | protein stability index
73 | EADYEDDSKIAFLMQKQDIQYLTE [L16K] | 4.53
74 | EADYEDDSKIAFLMQMQDIQYLTE [L16M] | 3.55
75 | EADYEDDSKIAFLMQDQDIQYLTE [L16D] | 4.58
76 | EADYEDDSKIAFLMQCQDIQYLTE [L16C] | 4.06
77 | EADYEDDSKIAFLMQTQDIQYLTE [L16T] | 3.75
78 | EADYEDDSKIAFLMQYQDIQYLTE [L16Y] | 3.64
79 | EADYEDDSKIAFLMQPQDIQYLTE [L16P] | 4.37
80 | EADYEDDSKIAFLMQVQDIQYLTE [L16V] | 3.71
81 | EADYEDDSKIAFCMQLQDIQYLTE [L13C] | 3.5
82 | EADYEDDSKIAFFMQLQDIQYLTE [L13F] | 2.85
83 | EADYEDDSKIAFYMQLQDIQYLTE [L13Y] | 2.84
84 | EADYEDDSKIAFTMQLQDIQYLTE [L13T] | 4.3
85 | EADYEDDSKIAFVMQLQDIQYLTE [L13V] | 3.12
86 | EADYEDDSKIAFRMQLQDIQYLTE [L13R] | 3.88
87 | EADYEDDSKIAFLMRLQDIQYLTE [Q15R] | 2.89
88 | EADYEDDSKIAFLMELQDIQYLTE [Q15E] | 3.36
89 | EADYEDDSKIAFLMYLQDIQYLTE [Q15Y] | 2.09
90 | EADYEDDSKIAFLMCLQDIQYLTE [Q15C] | 2.09
91 | EADYEDDSKIAFLMILQDIQYLTE [Q15I] | 1.98
92 | EADYEDDSKIAFLMVLQDIQYLTE [Q15V] | 1.76
93 | EADYEDDSKIALLMQLQDIQYLTE [F12L] | 2.96
94 | EADYEDDSKIAALMQLQDIQYLTE [F12A] | 3.89
